Literature values in article PMC3274258.
Values joined by “and” are separate entries in the source; they are usually repeats but may differ in a detail not shown here. Equal entries are not always repeated. Where two headings read alike, the source gives them in different places. One block for each substance: values may come before it.

Assays:
[1] = target: HtrII (Natronomonas pharaonis) (UniProt P42259)
[2] = target: HtrII (Natronomonas pharaonis) (UniProt P42259); remark: listed apart in the source
[3] = target: HtrII (Natronomonas pharaonis) (UniProt P42259); remark: listed apart in the source
[4] = target: Salinibacter transducer of SRI (SrHtrI); experiment: pH titration experiments (ref 123; detection not specified in the review)
Asp72 = experiment: pH titration; the review does not name the technique, and UV-vis absorption of the retinal chromophore is inferred; conditions: dark state
[5] = target: Halobacterial transducer of SRI (HsHtrI); experiment: not stated in the review (pKa determination quoted from ref 124); conditions: pH
Asp76 = Asp76 (UniProt position 76, GLRYIDWLVTT)
[6] = target: Halobacterial transducer of SRII, truncated (NpHtrII, pHtrII) (UniProt P42259); experiment: not stated in the review (pKa determination of ref 50); conditions: pH
Halobacterial transducer of SRII, truncated (NpHtrII, pHtrII), sequence (P42259 whole entry, the tested form may be a part): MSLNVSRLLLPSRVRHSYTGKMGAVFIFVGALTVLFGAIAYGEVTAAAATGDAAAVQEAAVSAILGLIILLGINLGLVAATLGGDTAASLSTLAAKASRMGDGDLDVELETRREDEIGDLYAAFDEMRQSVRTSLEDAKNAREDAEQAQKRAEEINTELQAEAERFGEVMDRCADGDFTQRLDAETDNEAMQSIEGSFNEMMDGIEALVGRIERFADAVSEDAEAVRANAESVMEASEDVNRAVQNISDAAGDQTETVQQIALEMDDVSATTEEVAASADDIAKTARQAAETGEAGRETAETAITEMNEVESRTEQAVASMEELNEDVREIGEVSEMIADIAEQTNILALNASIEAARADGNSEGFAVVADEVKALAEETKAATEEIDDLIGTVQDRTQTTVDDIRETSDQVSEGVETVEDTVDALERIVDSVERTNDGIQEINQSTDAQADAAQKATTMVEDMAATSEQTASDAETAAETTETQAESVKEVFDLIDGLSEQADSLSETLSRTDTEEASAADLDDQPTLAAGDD

Asp193 = Asp193 (UniProt position 193, LTPTVDVALIV); conditions: dark (ground) state

SRII, sequence (P42196 whole entry): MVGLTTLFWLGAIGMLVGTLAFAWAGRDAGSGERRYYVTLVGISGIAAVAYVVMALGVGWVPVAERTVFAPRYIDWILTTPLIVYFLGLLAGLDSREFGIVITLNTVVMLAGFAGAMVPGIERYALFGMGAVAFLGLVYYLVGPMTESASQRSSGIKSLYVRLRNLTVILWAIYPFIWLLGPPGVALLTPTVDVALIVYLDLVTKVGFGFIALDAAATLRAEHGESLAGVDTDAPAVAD
HtrII (Natronomonas pharaonis), sequence (P42259 whole entry): as the sequence (P42259 whole entry, the tested form may be a part) above

Kd [1]: 160 nM | Kd [2]: 15 µM | Kd [3]: 5 µM
Substance: SRII (from UniProt P42196)

pKa, Asp72 of SrSRI (Schiff-base counterion) [4]: 4.3 pH units and 4.9 pH units
Substance: Salinibacter sensory rhodopsin I (SrSRI)

Substance: Salinibacter sensory rhodopsin I (SrSRI) (Salinibacter ruber)
pKa (Asp72; SrSRI without SrHtrI): 4.3

pKa, Asp76 of HsSRI (Schiff-base counterion) [5]: 7.2 pH units and 8.5 pH units
Substance: Sensory rhodopsin I (HsSRI)

Substance: Sensory rhodopsin I (HsSRI) (Halobacterium salinarum)
pKa (Asp76; HsSRI associated with HsHtrI): 8.5 | pKa (Asp76; HsSRI without HsHtrI): 7.2

pKa, Asp193 of NpSRII [6]: 6.4 pH units and 5.6 pH units
Substance: Sensory rhodopsin II (NpSRII, pharaonis phoborhodopsin, ppR)

Substance: Sensory rhodopsin II (NpSRII; pharaonis phoborhodopsin, ppR) (Natronomonas pharaonis)
pKa (Asp193; NpSRII bound to truncated NpHtrII (1-114 or 1-159)): 5.6 | pKa (Asp193; NpSRII transducer-free): 6.4

Substance: SrSRI-SrHtrI fusion (Salinibacter sensory rhodopsin I fused to its full-length transducer) (Salinibacter ruber)
pKa (Asp72; SrSRI associated with SrHtrI (fusion construct)): 4.9
